Source: US20200299380A1 (published 2020)
Where a chain is given by its changes, count along the chain named.

B1: CHG1-M-MIA-20C6 (antibody, V domains shown)
VH: QITLKESGPGILKPSQTLSLTCSFSGFSLSTSGMGVGWIRQPSGKGLEWLAHIWWDDDKYYNPSLKSQLTISKDTSRNQVFLRITSVDTADTATYYCARRTQGYFDYWGQGTTLTVSS
VL: DIVMTQSPATLSVTPGDRVSLSCRASQSISDYLHWYQQKSHESPRLLIKYASQSISGIPSRFSGSGSGSDFTLSINSVEPEDVGVYYCQNGHSFPWTFGGGTKLEIKR
notes: also called chimeric anti-MICA 20C6
B2: CHG1-M-MIA-6E4 (antibody, V domains shown)
VH: EVQLVESGGALVKPGGSLKLSCAASGFTFSYYAMSWVRQTPEKRLEWVATISRGGNYIYYTDSVKGRFTISRDNAKNTLYLQMTSLRSEDTAMFYCASISDYDGAWLAYWGQGTTLTVSS
VL: DVLMTQTPLSLPVSLGDQASISCRSSQSIIHTNGNTYLEWYLQKPGQSPKLLIYKISNRFSGVPDRFSGSGSGTDFTLKISRVEAEDLGVYYCFQGSHVPWTFGGGTKLEIKR
notes: also called chimeric anti-MICA 6E4
B3: CHG1-M-MIA-16A8 (antibody, V domains shown)
VH: EVQLVESGGGLVKPGGSLKLSCAASGFTFSRYAMSWVRQTPEKRLEWVATIFSGGSYTYYPDSVKGRFTISRDNANNTLYLQMSSLKAEDTAMYFCARPNWERTFDYWGQGTTLTVSS
VL: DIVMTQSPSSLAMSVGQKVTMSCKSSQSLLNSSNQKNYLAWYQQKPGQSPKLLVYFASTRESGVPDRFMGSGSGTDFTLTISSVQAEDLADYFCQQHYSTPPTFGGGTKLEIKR
notes: also called CHG1-M-MIA2-16A8; chimeric anti-MICA 16A8

Tests used:
[1] = target: T1, MICA*001 expressed at the cell surface (human, UniProt Q29983 24-297); assay: cell-based or functional assay
T1 sequence: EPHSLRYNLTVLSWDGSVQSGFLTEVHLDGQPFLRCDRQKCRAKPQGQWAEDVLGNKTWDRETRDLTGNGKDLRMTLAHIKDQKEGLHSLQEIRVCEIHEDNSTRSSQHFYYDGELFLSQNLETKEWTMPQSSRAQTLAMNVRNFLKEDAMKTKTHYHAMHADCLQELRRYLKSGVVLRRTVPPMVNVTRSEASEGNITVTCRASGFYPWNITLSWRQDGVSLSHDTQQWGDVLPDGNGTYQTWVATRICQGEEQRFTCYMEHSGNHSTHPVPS

[2] = target: T2, human ULBP-2-Fc (R&D systems) (human, UniProt Q9BZM5 26-217, limits assumed); assay: SPR, antibody injected over immobilized ULBP-2-Fc
T2 construct: Bought; not shown: Fc of the bought fusion protein
T2 sequence (looked up): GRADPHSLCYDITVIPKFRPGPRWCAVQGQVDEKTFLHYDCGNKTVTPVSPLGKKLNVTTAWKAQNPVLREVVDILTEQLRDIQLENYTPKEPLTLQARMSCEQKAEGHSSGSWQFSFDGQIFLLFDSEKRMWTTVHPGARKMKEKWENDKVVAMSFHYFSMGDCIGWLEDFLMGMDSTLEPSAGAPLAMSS
Experimental: (§1) For cross-binding study, the human ULBP-1-Fc (R&D systems*), MICB-Fc (*), ULBP-2-Fc (*) and ULBP-3-Fc (*) recombinant proteins were covalently immobilized respectively on the flow cell one to four of a CM5 sensorchip. Anti-MICA antibodies (at a constant concentration of 10 μg/ml) were injected for 2 minutes at a flow rate of 10 μl/min onto the four flow cells in parallel. After each cycle, Sensorchip was regenerated by a five second injection of appropriate regeneration buffer.

[3] = target: T3, MICA*007 expressed at the cell surface (human, UniProt Q29983 24-297); assay: flow cytometry on C1R transfectant cells, 4-parameter logistic fit
T3 construct: also called C1R-MICA*007; C1R-MICA*07
T3 chain: T1 sequence with T24A, K125E

[4] = target: T4, MICB-Fc (R&D Systems 1599-MB) (human, UniProt Q29980 23-298, limits assumed); assay: SPR, antibody at 10 µg/ml injected over immobilized MICB-Fc
T4 construct: Bought; also called human MICB-Fc; not shown: Fc of the bought fusion protein
T4 sequence: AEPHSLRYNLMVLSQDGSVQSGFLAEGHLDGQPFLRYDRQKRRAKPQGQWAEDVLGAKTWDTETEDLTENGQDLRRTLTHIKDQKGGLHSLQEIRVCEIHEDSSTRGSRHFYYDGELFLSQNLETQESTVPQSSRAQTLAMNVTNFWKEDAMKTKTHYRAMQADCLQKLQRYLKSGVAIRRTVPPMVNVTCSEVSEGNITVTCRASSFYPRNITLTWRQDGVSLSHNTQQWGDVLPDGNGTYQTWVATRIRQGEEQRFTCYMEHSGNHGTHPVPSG
Experimental: as §1

CDC: EC50 of the increase in dead (7-AAD positive) Raji-MICA*01 cells with human complement [1] [µg/mL]	binding result [2]	EC50 [3] [µg/mL]	binding result [4]	Binder
0.97	no binding (tested: 10 µg/ml)	0.4	–	B1
1.01	no binding (tested: 10 µg/ml)	1.23	binds	B2
–	no binding (tested: 10 µg/ml)	–	binds	B3
